Measured values as given in paper PMC3481545.
Where a chain is given by its changes, count along the chain named. Names and notes keep the numbering of the source. One block for each binder: values may come before it.

Biological target: Activin (UniProt P08476)
Experiment: SPR

Kd: 26 µM
B1: human recombinant BMPR-II ECD, wild type (domain or fragment)
chain: ASQNQERLCAFKDPYQQDLGIGESRISHENGTILCSKGSTCYGLWEKSKGDINLVKQGCWSHIGDPQECHYEECVVTTTPPSIQNGTYRFCCCSTDLCNVNFTENFPPPDTTPLSPPHSFNRDET

Kd: 30 µM
B2: BMPR-II ECD G47N (domain or fragment)
chain: B1 chain with G22N

Kd: 70 µM
B3: BMPR-II ECD Y40P (domain or fragment)
chain: B1 chain with Y15P

Kd: 46 µM
B4: BMPR-II ECD Y40R (domain or fragment)
chain: B1 chain with Y15R

Kd: 54 µM
B5: BMPR-II ECD Y40G (domain or fragment)
chain: B1 chain with Y15G

Kd: 23 µM
B6: BMPR-II ECD S107P (domain or fragment)
chain: B1 chain with S82P

Kd: 35 µM
B7: BMPR-II ECD Y40Q (domain or fragment)
chain: B1 chain with Y15Q
